Earlier results as cited in US10105305B2, “Compositions and methods for promoting skin regeneration and hair growth” (THE JOHNS HOPKINS UNIVERSITY, priority 2014, dated 2018).

Details: in solution; cited from earlier work

Substance: LL-37: 37 amino acid cathelicidin peptide, SEQ ID NO:1, residues 134-170 of hCAP18
- resistance to proteolytic degradation: significantly resistant to proteolytic degradation in solution
